The record followed here is article PMC12338864, “Modifications in FLAP's second cytosolic loop influence 5‐LOX interaction, inhibitor binding, and leukotriene formation” (Febs Letters, 2025).

Positions count from the first letter of the chain named.

One assay has as its target T1, FLAP(T109C) (human, UniProt P20292 1-161, T109C).
T1 sequence (looked up): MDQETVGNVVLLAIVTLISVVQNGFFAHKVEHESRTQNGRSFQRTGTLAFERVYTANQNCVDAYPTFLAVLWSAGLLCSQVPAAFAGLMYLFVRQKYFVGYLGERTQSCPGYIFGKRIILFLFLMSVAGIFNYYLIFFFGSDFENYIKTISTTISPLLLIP
Put plainly: cell-based or functional assay.

A further assay addresses T2, FLAP(S41D) (human, UniProt P20292 1-161, S41D).
T2 sequence (looked up): T1 sequence (looked up) with S41D, C109T
The experiment in a line: cell-based or functional assay.

Another assay has as its target T3, FLAP(S108D) (human, UniProt P20292 1-161, S108D).
T3 sequence (looked up): T1 sequence (looked up) with S108D, C109T
The experiment in a line: cell-based or functional assay.

For a further assay, the target named is T4, FLAP(S108Δ) (human) (UniProt P20292).
T4 sequence: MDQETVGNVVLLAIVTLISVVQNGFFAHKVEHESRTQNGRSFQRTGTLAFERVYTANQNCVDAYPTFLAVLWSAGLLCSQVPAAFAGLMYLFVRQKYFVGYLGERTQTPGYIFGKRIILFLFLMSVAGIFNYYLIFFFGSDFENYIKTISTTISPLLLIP

B1: 5-lipoxygenase (enzyme, human, UniProt P09917 1-674, looked up)
chain: MPSYTVTVATGSQWFAGTDDYIYLSLVGSAGCSEKHLLDKPFYNDFERGAVDSYDVTVDEELGEIQLVRIEKRKYWLNDDWYLKYITLKTPHGDYIEFPCYRWITGDVEVVLRDGRAKLARDDQIHILKQHRRKELETRQKQYRWMEWNPGFPLSIDAKCHKDLPRDIQFDSEKGVDFVLNYSKAMENLFINRFMHMFQSSWNDFADFEKIFVKISNTISERVMNHWQEDLMFGYQFLNGCNPVLIRRCTELPEKLPVTTEMVECSLERQLSLEQEVQQGNIFIVDFELLDGIDANKTDPCTLQFLAAPICLLYKNLANKIVPIAIQLNQIPGDENPIFLPSDAKYDWLLAKIWVRSSDFHVHQTITHLLRTHLVSEVFGIAMYRQLPAVHPIFKLLVAHVRFTIAINTKAREQLICECGLFDKANATGGGGHVQMVQRAMKDLTYASLCFPEAIKARGMESKEDIPYYFYRDDGLLVWEAIRTFTAEVVDIYYEGDQVVEEDPELQDFVNDVYVYGMRGRKSSGFPKSVKSREQLSEYLTVVIFTASAQHAAVNFGQYDWCSWIPNAPPTMRAPPPTAKGVVTIEQIVDTLPDRGRSCWHLGAVWALSQFQENELFLGMYPEEHFIEKPVKEAMARFRKNLEAIVSVIAERNKKKQLPYYYLSPDRIPNSVAI
In the case of B1, the “ratio of 5‐H(P)ETE to trans‐isomers of LTB4 formed in HEK293 cells co-expressing 5-LOX and the FLAP mutant (2.5 μM A23187 plus 2 μM AA, vehicle); wildtype about 1.2” value came to 2.6 in the assay with FLAP(T109C), 2.3 with FLAP(S41D), 2 in the assay with FLAP(S108D) and 3.2 with FLAP(S108Δ) (human).
